Assay results reported in patent publication US20230391886A1.

Biological target: MUC18 (target of JM1-24-3 as used in Bio-Layer Interferometry) (Homo sapiens (Human)) (UniProt P43121)
Test: Bio-Layer Interferometry, Octet RED384

B1: JM1-24-3 (antibody, V domains shown)
VH: MSCKASGYAFTSYWMNWIKERPGQGLEWIGAIDPFNGYTEYNHKFKDKAILTADNSSSTVYMQLSSLTSEDSAVYYCARWGGRLYFDYWGQGTTLTVSS
VL: MTQSPSSMYASLGERVTITCKASQDINSFLSWFQQKPGKSPKTLIYRANRLVDGVPSRFSGSGSGQDYSLTISSLEYEDMGIYYCLQYDEFPYTFGGGTKLEIKR
Kd: 1.6 nM
